Data as given in patent publication US20250210128A1, “COMPUTER-IMPLEMENTED DESIGN OF PEPTIDE:RECEPTOR SIGNALING COMPLEXES FOR ENHANCED CHEMOTAXIS” (Ecole Polytechnique Federale de Lausanne (EPFL), priority 2022, published 2025).

Experiments:
[1] = biological target: WT CXCR4 with an N-terminal 3xHA-tag (human) (UniProt P61073); assay: cell-based or functional assay
[2] = biological target: CLdes CXCR4 sensor (Cdes2 design combined with H113N) (human); assay: cell-based or functional assay

Sequence of WT CXCR4 with an N-terminal 3xHA-tag (human) (P61073 other isoform, or with tags, fused parts or gaps): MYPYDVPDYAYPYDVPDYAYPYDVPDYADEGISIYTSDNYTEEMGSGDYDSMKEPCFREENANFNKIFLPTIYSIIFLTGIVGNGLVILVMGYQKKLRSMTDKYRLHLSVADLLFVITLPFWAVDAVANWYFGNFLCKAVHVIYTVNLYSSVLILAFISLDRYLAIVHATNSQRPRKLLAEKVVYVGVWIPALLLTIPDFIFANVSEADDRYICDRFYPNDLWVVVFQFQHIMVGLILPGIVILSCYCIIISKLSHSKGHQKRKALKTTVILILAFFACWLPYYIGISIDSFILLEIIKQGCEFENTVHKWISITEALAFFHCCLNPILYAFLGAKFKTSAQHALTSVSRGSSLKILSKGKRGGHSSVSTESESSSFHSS

With “full-length wild-type CXCL12 chemokine (from UniProt P48061 22-93) (ligand)” the migration of transduced primary human T cells (Boyden chamber, migration index over no-chemoattractant control) [1] was 1.5 fold and the migration of transduced primary human T cells (Boyden chamber, migration index over no-chemoattractant control) [2] was < 5 fold.
